# Measured values published in doi:10.1101/2024.07.10.602906.
# Key:
# [1] = molecular target: GV CW1 murine norovirus VP1 P-domain (wild type) (murine norovirus (GV, MNV-1 CW1)) (UniProt Q80J95); assay: NMR titration
# [2] = molecular target: GV CW1 murine norovirus VP1 P-domain (wild type) (murine norovirus (GV, MNV-1 CW1)) (UniProt Q80J95); assay: methyl TROSY NMR
substance,measurement,setting,value
GV CW1 murine norovirus VP1 P-domain (wild type) (from UniProt Q80J95 228-530) (domain or fragment),Kd,[1],45 µM
same,koff,[1],4.7 s⁻¹
same,percent dimers at pH* 5.3,[2],> 70%
same,percent monomers at pH 7.4,[2],70%
